{
  "source": "paper PMC6308570",
  "binders": {"B1": {"name": "amine-modified thrombin binding aptamer (29-mer with T5 spacer) (ssDNA)", "DNA": "TTTTTAGTCCGTGGTAGGGCAGGTTGGGGTGACT", "modifications": "5' amino C6 (AmC6F)"}},
  "target": "thrombin (UniProt P00734;P00734 328-363;364-622)",
  "assay": "etched fiber Bragg grating biosensor (immobilized aptamer); thrombin 10, 20, 40, 80 nM; 5 mM MgCl2; Affinity buffer 50 mM Tris-HCl pH 7.4, 250 mM NaCl, 5 mM MgCl2; 2 h incubation; surface blocked with 1% BSA; temperature not stated",
  "data": [
    {"binder": "B1", "values": [
      {"measurement": "binding result", "result": "binds"}
    ]}
  ]
}
